The target in test [1] is recombinant Factor VIII (as described in Zollner et al 2013) (Homo sapiens (Human)) (UniProt P00451). Briefly: SPR, anti-His capture. On the technique in general: Surface plasmon resonance follows binding to a sensor surface in real time, without labels.
The target of test [2] is T1, recombinant Factor VIII (as described in Zollner et al 2013) (Homo sapiens (Human), UniProt P00451 20-2351).
T1 construct: also called FVIII
T1 sequence: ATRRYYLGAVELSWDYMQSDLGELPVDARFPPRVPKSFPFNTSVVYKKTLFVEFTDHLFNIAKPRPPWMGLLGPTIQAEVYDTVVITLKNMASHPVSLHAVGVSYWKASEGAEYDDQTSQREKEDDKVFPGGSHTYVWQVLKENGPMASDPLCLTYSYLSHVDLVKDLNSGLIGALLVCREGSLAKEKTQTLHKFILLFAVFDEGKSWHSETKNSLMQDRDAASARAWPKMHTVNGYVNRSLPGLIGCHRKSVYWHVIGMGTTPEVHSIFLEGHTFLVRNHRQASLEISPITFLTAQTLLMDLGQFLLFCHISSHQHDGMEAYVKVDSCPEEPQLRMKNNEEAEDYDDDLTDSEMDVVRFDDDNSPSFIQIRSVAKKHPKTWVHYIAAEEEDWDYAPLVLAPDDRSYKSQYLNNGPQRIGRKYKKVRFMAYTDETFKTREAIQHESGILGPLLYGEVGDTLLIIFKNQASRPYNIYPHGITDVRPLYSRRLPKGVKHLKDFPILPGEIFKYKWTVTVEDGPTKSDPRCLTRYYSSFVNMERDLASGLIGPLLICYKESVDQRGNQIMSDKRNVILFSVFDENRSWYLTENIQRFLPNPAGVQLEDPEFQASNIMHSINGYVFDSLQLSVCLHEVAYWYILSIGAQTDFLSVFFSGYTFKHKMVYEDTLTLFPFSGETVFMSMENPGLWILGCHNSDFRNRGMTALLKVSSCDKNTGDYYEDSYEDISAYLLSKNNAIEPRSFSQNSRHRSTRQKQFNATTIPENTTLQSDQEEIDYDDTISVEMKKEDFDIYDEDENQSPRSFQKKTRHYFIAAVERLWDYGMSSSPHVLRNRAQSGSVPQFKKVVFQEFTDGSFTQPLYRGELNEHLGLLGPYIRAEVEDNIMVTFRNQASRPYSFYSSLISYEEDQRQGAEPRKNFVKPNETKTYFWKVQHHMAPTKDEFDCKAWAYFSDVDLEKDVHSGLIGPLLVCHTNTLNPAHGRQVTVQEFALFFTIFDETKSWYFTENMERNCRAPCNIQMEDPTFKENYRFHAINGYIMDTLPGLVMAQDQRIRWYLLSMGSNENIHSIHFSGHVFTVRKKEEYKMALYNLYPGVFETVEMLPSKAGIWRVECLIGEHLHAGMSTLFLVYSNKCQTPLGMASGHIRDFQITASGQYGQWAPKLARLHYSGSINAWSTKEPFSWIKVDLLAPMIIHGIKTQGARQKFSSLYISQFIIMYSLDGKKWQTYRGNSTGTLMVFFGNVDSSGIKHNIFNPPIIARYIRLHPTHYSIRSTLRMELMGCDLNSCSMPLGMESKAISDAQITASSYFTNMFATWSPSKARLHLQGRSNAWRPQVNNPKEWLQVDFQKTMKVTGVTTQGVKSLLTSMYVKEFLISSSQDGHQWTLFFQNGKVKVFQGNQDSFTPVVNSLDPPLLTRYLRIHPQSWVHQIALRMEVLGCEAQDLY
Kind of test: SPR, anti-His capture. On the procedure:
Binding kinetics were investigated by surface plasmon resonance using a Biacore 4000 biosensor at 37° C. Each mutant was captured from cell culture medium to a density of 40-150RU on a CM-5 sensor chip pre-immobilised with anti-His antibody (14,000 RU). In an initial screening study, FVIII was injected over the captured mutants for 5 minutes at 1 nM and dissociation monitored for 5 minutes.
All sensorgrams were double referenced by subtraction of signals from a reference spot (containing only immobilised anti His antibody) and from a blank injection. Binding kinetics were determined by fitting the double referenced sensorgrams to a 1:1 kinetic model.

Several values for one entry are separate records, joined by “and”; a condition that tells them apart may be missing. Identical values can stand only once.

Broadly, the Kd is the free concentration of one partner at which half of the binding sites on the other are occupied at equilibrium, for simple one-to-one binding. As usually defined, the koff is the rate constant with which the complex falls apart. For orientation: kon means a measure of how fast the partners come together.

Regarding “Hu-vWF[764-1270]-8His dupS764/S764P/S766I”, in test [1], the Kd is 255 pM and 199 pM; the koff is 0.00159 s⁻¹ and 0.0025 s⁻¹; the kon is 6.23e+06 M⁻¹ s⁻¹ and 1.25e+07 M⁻¹ s⁻¹.

B1: Hu-vWF[764-1270]-8His S764P-S766I (other)
chain: PLICRPPMVKLVCPADNLRAEGLECTKTCQNYDLECMSMGCVSGCLCPPGMVRHENRCVALERCPCFHQGKEYAPGETVKIGCNTCVCRDRKWNCTDHVCDATCSTIGMAHYLTFDGLKYLFPGECQYVLVQDYCGSNPGTFRILVGNKGCSHPSVKCKKRVTILVEGGEIELFDGEVNVKRPMKDETHFEVVESGRYIILLLGKALSVVWDRHLSISVVLKQTYQEKVCGLCGNFDGIQNNDLTSSNLQVEEDPVDFGNSWKVSSQCADTRKVPLDSSPATCHNNIMKQTMVDSSCRILTSDVFQDCNKLVDPEPYLDVCIYDTCSCESIGDCACFCDTIAAYAHVCAQHGKVVTWRTATLCPQSCEERNLRENGYECEWRYNSCAPACQVTCQHPEPLACPVQCVEGCHAHCPPGKILDELLQTCVDPEDCPVCEVAGRRFASGKKVTLNPSDPEHCQICHCDVVNLTCEACQEPGGLVVPPTDAPVSPTTLYVEDISEPPLHDFHHHHHHHH
Turning to B1, in test [2], the “fold decrease in off-rate vs wild type” value worked out at 22 fold and the “fold increase in affinity vs wild type” value came to 30 fold.

Values taken from US20170152300A1 (CSL, published 2017).
